Assay results published in US20090324646A1 (INSTITUT PASTEUR, published 2009).
Like-named read-outs stand apart in the source and are kept apart here.

Key:
[1] = tested on: 33P-labeled Erk2 (GST-Erk2 fusion protein phosphorylated in vitro by MEK1)
[2] = biological target: peptide mimicking the histone H3 tail carrying pS10 modification
[3] = biological target: histone H3 purified from calf thymus, P68432
[4] = biological target: 33P-labeled Erk2 (GST-Erk2 fusion protein phosphorylated in vitro by MEK1); remark: listed apart in the source
[5] = biological target: NF-κB p65 (endogenous, Caco 2 nuclear extracts) (human, UniProt Q04206 1-551); test: supershift EMSA of Caco 2 nuclear extracts with anti-p50 and anti-p65 antibodies
NF-κB p65 (endogenous, Caco 2 nuclear extracts), sequence (Q04206 whole entry): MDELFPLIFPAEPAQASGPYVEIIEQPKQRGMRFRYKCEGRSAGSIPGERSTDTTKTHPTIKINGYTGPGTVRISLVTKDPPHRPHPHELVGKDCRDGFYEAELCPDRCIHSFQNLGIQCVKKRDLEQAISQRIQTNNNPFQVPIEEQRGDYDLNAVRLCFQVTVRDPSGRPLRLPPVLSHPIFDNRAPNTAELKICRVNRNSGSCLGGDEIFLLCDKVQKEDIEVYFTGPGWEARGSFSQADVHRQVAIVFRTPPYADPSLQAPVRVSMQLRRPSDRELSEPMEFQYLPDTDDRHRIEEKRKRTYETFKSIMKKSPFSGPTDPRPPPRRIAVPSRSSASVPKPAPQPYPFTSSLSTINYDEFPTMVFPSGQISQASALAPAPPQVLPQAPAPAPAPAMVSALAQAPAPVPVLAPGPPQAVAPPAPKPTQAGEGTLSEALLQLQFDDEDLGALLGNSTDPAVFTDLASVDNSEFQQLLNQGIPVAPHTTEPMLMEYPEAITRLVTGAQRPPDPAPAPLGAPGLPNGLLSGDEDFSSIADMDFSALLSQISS

B1: MKP1 (mammalian dual specific phosphatase, Upstate Cell Signaling) (enzyme, UniProt P28562 1-367, looked up, species assumed)
Dual specificity protein phosphatase 1: MVMEVGTLDAGGLRALLGERAAQCLLLDCRSFFAFNAGHIAGSVNVRFSTIVRRRAKGAMGLEHIVPNAELRGRLLAGAYHAVVLLDERSAALDGAKRDGTLALAAGALCREARAAQVFFLKGGYEAFSASCPELCSKQSTPMGLSLPLSTSVPDSAESGCSSCSTPLYDQGGPVEILPFLYLGSAYHASRKDMLDALGITALINVSANCPNHFEGHYQYKSIPVEDNHKADISSWFNEAIDFIDSIKNAGGRVFVHCQAGISRSATICLAYLMRTNRVKLDEAFEFVKQRRSIISPNFSFMGQLLQFESQVLAPHCSAEAGSPAMAVLDRGTSTTTVFNFPVSIPVHSTNSALSYLQSPITTSPSC
- Km [1]: 0.229 µM
- Vmax [1]: 6.01 pM/s
- dephosphorylation of 33P-labeled Erk2 (gel mobility in SDS-PAGE/autoradiography, Western blot) [1]: Dephosphorylation of Erk2 by both enzymes was confirmed
- kcat [1]: 0.0006 s⁻¹

B2: lambda phosphatase (protein)
chain: MRYYEKIDGSKYRNIWVVGDLHGCYTNLMNKLDTIGFDNKKDLLISVGDLVDRGAENVECLELITFPWFRAVRGNHEQMMIDGLSERGNVNHWLLNGGGWFFNLDYDKEILAKALAHKADELPLIIELVSKDKKYVICHADYPFDEYEFGKPVDHQQVIWNRERISNSQNGIVKEIKGADTFIFGHTPAVKPLKFANQMYIDTGAVFCGNLTLIQVQGEGA
- in vitro dephosphorylation of peptide [2]: in contrast to the lambda phosphatase, OspF did not directly dephosphorylate these substrates
- in vitro dephosphorylation (Western blot, anti-metK9-pS10 antibody) [3]: in contrast to the lambda phosphatase, OspF did not directly dephosphorylate these substrates

B3: OspF phosphatase (purified recombinant protein) (protein)
chain: MPIKKPCLKLNLDSLNVVRSEIPQMLSANERLKNNFNILYNQIRQYPAYYFKVASNVPTYSDICQSFSVMYQGFQIVNHSGDVFIHACRENPQSKGDFVGDKFHISIAREQVPLAFQILSGLLFSEDSPIDKWKITDMNRVSQQSRVGIGAQFTLYVKSDQECSQYSALLLHKIRQFIMCLESNLLRSKIAPGEYPASDVRPEDWKYVSYRNELRSDRDGSERQEQMLREEPFYRLMIE
- Km [4]: 0.204 µM
- Vmax [4]: 9.89 pM/s
- dephosphorylation of 33P-labeled Erk2 (gel mobility in SDS-PAGE/autoradiography, Western blot) [4]: Dephosphorylation of Erk2 by both enzymes was confirmed
- kcat [4]: 0.0001 s⁻¹
- in vitro dephosphorylation of peptide [2]: OspF did not directly dephosphorylate these substrates, even when the enzyme concentration was increased 100 fold
- in vitro dephosphorylation (Western blot, anti-metK9-pS10 antibody) [3]: OspF did not directly dephosphorylate these substrates, even when the enzyme concentration was increased 100 fold

B4: NF-κB p50 (endogenous, Caco 2 nuclear extracts) (other)
chain: MAEDDPYLGRPEQMFHLDPSLTHTIFNPEVFQPQMALPTDGPYLQILEQPKQRGFRFRYVCEGPSHGGLPGASSEKNKKSYPQVKICNYVGPAKVIVQLVTNGKNIHLHAHSLVGKHCEDGICTVTAGPKDMVVGFANLGILHVTKKKVFETLEARMTEACIRGYNPGLLVHPDLAYLQAEGGGDRQLGDREKELIRQAALQQTKEMDLSVVRLMFTAFLPDSTGSFTRRLEPVVSDAIYDSKAPNASNLKIVRMDRTAGCVTGGEEIYLLCDKVQKDDIQIRFYEEEENGGVWEGFGDFSPTDVHRQFAIVFKTPKYKDINITKPASVFVQLRRKSDLETSEPKPFLYYPEIKDKEEVQRKRQKLMPNFSDSFGGGSGAGAGGGGMFGSGGGGGGTGSTGPGYSFPHYGFPTYGGITFHPGTTKSNAGMKHG
- binding result [5]: binds
